Results: patent US20200199241A1 (Chugai, published 2020)
Substitutions are numbered along the chain they refer to. Numbers in names are those of the source.

B1: IgG1-F364 (antibody)
heavy: QVQLQESGPGLVKPSETLSLTCAVSGHSISHDHAWSWVRQPPGEGLEWIGFISYSGITNYNPSLQGRVTISRDNSKNTLYLQMNSLRAEDTAVYYCARSLARTTAMDYWGEGTLVTVSSASTKGPSVFPLAPSSKSTSGGTAALGCLVKDYFPEPVTVSWNSGALTSGVHTFPAVLQSSGLYSLSSVVTVPSSSLGTQTYICNVNHKPSNTKVDKKVEPKSCDKTHTCPPCPAPELLGGPSVFLFPPKPKDTLMISRTVEVTCVVVDVSHEDPEVKFNWYVDGVEVHNAKTKPREEQYNSTYRVVSVLQVLHADWLNGKEYKCKVSGKALPAPIEKTISKAKGQPREPQVYTLPPSRDELTKNQVSLTCLVKGFYPSDIAVEWESNGQPENNYKTTPPVLDSDGSFFLYSKLTVDKSRWQQGNVFSCSVLHEALHYHYTQKSLSLSP
light: not shown
notes: EU numbering; copies: 2 + 2
B2: IgG1-F438 (antibody)
heavy: B1 heavy with V259A, A313Q, G327N, L430Y
light: not shown
notes: EU numbering; copies: 2 + 2
B3: IgG1-F365 (antibody)
heavy: B1 heavy with V307A, A313Q, G327N
light: not shown
notes: EU numbering; copies: 2 + 2
B4: IgG1-F369 (antibody)
heavy: B1 heavy with M254Y, A313Q, G327N, L430I
light: not shown
notes: EU numbering; copies: 2 + 2
B5: IgG1-F423 (antibody)
heavy: B1 heavy with M254Y, V259P, Q309W, A313H, G327N, L430M
light: not shown
notes: EU numbering; copies: 2 + 2
B6: IgG1-F428 (antibody)
heavy: B1 heavy with M254Y, A313Q, G327N
light: not shown
notes: EU numbering; copies: 2 + 2
B7: IgG1-F400 (antibody)
heavy: B1 heavy with S241K, M254Y, V259P, D272F, N288E, Q309T, V310P, G327N, L430I
light: not shown
notes: EU numbering; copies: 2 + 2
B8: IgG1-F416 (antibody)
heavy: B1 heavy with Q309A, A313Q, G327N, P389E
light: not shown
notes: EU numbering; copies: 2 + 2
B9: IgG1-F368 (antibody)
heavy: B1 heavy with S241K, M254Y, V259P, D272F, Q309T, V310P, A313Q, E384A, L430I
light: not shown
notes: EU numbering; copies: 2 + 2
B10: IgG1-F433 (antibody)
heavy: B1 heavy with L430M
light: not shown
notes: EU numbering; copies: 2 + 2
B11: IgG1-F408 (antibody)
heavy: B1 heavy with N288E, Q309T, A313Q, G327N
light: not shown
notes: EU numbering; copies: 2 + 2
B12: IgG1-F422 (antibody)
heavy: B1 heavy with M254Y, V259P, Q309A, A313H, G327N, E384A, L430M
light: not shown
notes: EU numbering; copies: 2 + 2
B13: IgG1-F424 (antibody)
heavy: B1 heavy with S241K, V259A, Q309T, V310P, A313Q, G327N
light: not shown
notes: copies: 2 + 2
B14: IgG1-F431 (antibody)
heavy: B1 heavy with M254Y, A313Q, G327N, L430F
light: not shown
notes: EU numbering; copies: 2 + 2
B15: IgG1-F437 (antibody)
heavy: B1 heavy with V259A, A313Q, G327N, L430M
light: not shown
notes: EU numbering; copies: 2 + 2
B16: IgG1-F435 (antibody)
heavy: B1 heavy with L430F
light: not shown
notes: EU numbering; copies: 2 + 2
B17: IgG1-F427 (antibody)
heavy: B1 heavy with M254Y, A313Q, G327N, L430V
light: not shown
notes: EU numbering; copies: 2 + 2
B18: IgG1-F397 (antibody)
heavy: B1 heavy with S241K, M254Y, V259P, D272F, G327N, P389E, L430I
light: not shown
notes: EU numbering; 'T370Q' as printed, probably T307Q; copies: 2 + 2
B19: IgG1-F376 (antibody)
heavy: QVQLQESGPGLVKPSETLSLTCAVSGHSISHDHAWSWVRQPPGEGLEWIGFISYSGITNYNPSLQGRVTISRDNSKNTLYLQMNSLRAEDTAVYYCARSLARTTAMDYWGEGTLVTVSSASTKGPSVFPLAPSSKSTSGGTAALGCLVKDYFPEPVTVSWNSGALTSGVHTFPAVLQSSGLYSLSSVVTVPSSSLGTQTYICNVNHKPSNTKVDKKVEPKSCDKTHTCPPCPAPELLGGPKVFLFPPKPKDTLYISREPEVTCVVVDVSHEFPEVKFNWYVDGVEVHEAKTKPREEQYNSTYRVVSVLTPLHQDWLNGKEYKCKVSNKALPAPIEKTISKAKGQPREPQVYTLPPSRDELTKNQVSLTCLVKGFYPSDIAVEWESNGQPENNYKTTPPVLDSDGSFFLYSKLTVDKSRWQQGNVFSCSVMHEALHYHYTQKSLSLSP
light: not shown
notes: EU numbering; copies: 2 + 2
B20: IgG1-F381 (antibody)
heavy: B1 heavy with Q309A, G327N
light: not shown
notes: EU numbering; copies: 2 + 2
B21: IgG1-F415 (antibody)
heavy: B1 heavy with N288E, Q309A, A313Q, G327N
light: not shown
notes: EU numbering; copies: 2 + 2
B22: IgG1-F432 (antibody)
heavy: B1 heavy with L430V
light: not shown
notes: EU numbering; copies: 2 + 2
B23: IgG1-F402 (antibody)
heavy: B1 heavy with A313Q, G327N, Y436W
light: not shown
notes: EU numbering; copies: 2 + 2
B24: IgG1-F399 (antibody)
heavy: B19 heavy with E258T, T309Q, M430I
light: not shown
notes: EU numbering; copies: 2 + 2
B25: IgG1-F413 (antibody)
heavy: B1 heavy with Q309P, A313Q, G327N
light: not shown
notes: EU numbering; copies: 2 + 2
B26: IgG1-F388 (antibody)
heavy: B19 heavy with K241S, E258T, F272D, E288N, L311A
light: not shown
notes: EU numbering; copies: 2 + 2
B27: IgG1-F430 (antibody)
heavy: B1 heavy with M254Y, A313Q, G327N, L430Y
light: not shown
notes: EU numbering; copies: 2 + 2
B28: IgG1-F387 (antibody)
heavy: B19 heavy with K241S, E258T, F272D, E288N, L311D
light: not shown
notes: EU numbering; copies: 2 + 2
B29: IgG1-F411 (antibody)
heavy: B1 heavy with Q309N, A313Q, G327N
light: not shown
notes: EU numbering; copies: 2 + 2
B30: IgG1-F404 (antibody)
heavy: B1 heavy with V259A, L311P, A313Q, G327N
light: not shown
notes: EU numbering; 'M928L' read as M428L; copies: 2 + 2
B31: IgG1-F395 (antibody)
heavy: B19 heavy with F272D, E288N
light: not shown
notes: EU numbering; copies: 2 + 2
B32: IgG1-F389 (antibody)
heavy: B19 heavy with K241S, Y254W, E258T, F272D, E288N, L311E, M430Y
light: not shown
notes: EU numbering; copies: 2 + 2
B33: IgG1-F403 (antibody)
heavy: B1 heavy with Q309A, A313Q, G327N, Y436W
light: not shown
notes: EU numbering; copies: 2 + 2
B34: IgG1-F429 (antibody)
heavy: B1 heavy with M254Y, A313Q, G327N, L430M
light: not shown
notes: EU numbering; copies: 2 + 2
B35: IgG1-F380 (antibody)
heavy: B19 heavy with Y254W, F272D, M430Y
light: not shown
notes: EU numbering; copies: 2 + 2
B36: IgG1-F410 (antibody)
heavy: B1 heavy with Q309H, A313Q, G327N
light: not shown
notes: EU numbering; copies: 2 + 2
B37: IgG1-F425 (antibody)
heavy: B1 heavy with V259A, Q309T, V310P, L311E, A313Q, G327N
light: not shown
notes: EU numbering; copies: 2 + 2
B38: IgG1-F391 (antibody)
heavy: B19 heavy with K241S, Y254W, E258T, F272D, E288N, L311A, M430Y
light: not shown
notes: EU numbering; copies: 2 + 2
B39: IgG1-F375 (antibody)
heavy: B19 heavy with Y254W, E258T, F272D, M430Y
light: not shown
notes: EU numbering; copies: 2 + 2
B40: IgG1-F386 (antibody)
heavy: B19 heavy with K241S, E258T, F272D, E288N, L311E
light: not shown
notes: EU numbering; copies: 2 + 2
B41: IgG1-F436 (antibody)
heavy: B1 heavy with V259A, A313Q, G327N, L430V
light: not shown
notes: EU numbering; copies: 2 + 2
B42: IgG1-F418 (antibody)
heavy: B1 heavy with S241K, M254Y, V259P, Q309P, A313Q, L430Y
light: not shown
notes: EU numbering; copies: 2 + 2
B43: IgG1-F406 (antibody)
heavy: B1 heavy with V259A, L311R, A313Q, G327N
light: not shown
notes: EU numbering; copies: 2 + 2
B44: IgG1-F372 (antibody)
heavy: B19 heavy with Y254W, E258T, F272D, E288N, M430Y
light: not shown
notes: EU numbering; copies: 2 + 2
B45: IgG1-F409 (antibody)
heavy: B1 heavy with Q309T, A313Q, G327N, P389E
light: not shown
notes: EU numbering; copies: 2 + 2
B46: IgG1-F390 (antibody)
heavy: B19 heavy with K241S, Y254W, E258T, F272D, E288N, L311D, M430Y
light: not shown
notes: EU numbering; copies: 2 + 2
B47: IgG1-F367 (antibody)
heavy: B19 heavy with E258T, E260H, E288N, T309Q, Q313A
light: not shown
notes: EU numbering; copies: 2 + 2
B48: IgG1-F407 (antibody)
heavy: B1 heavy with L311R, A313Q, G327N
light: not shown
notes: EU numbering; copies: 2 + 2
B49: IgG1-F392 (antibody)
heavy: B19 heavy with E258T, F272D, M430I
light: not shown
notes: EU numbering; copies: 2 + 2
B50: IgG1-F377 (antibody)
heavy: B19 heavy with Y254W, E258T, F272D, E288N, T309P, P310V, M430Y
light: not shown
notes: EU numbering; copies: 2 + 2
B51: IgG1-F412 (antibody)
heavy: B1 heavy with Q309G, A313Q, G327N
light: not shown
notes: EU numbering; copies: 2 + 2
B52: IgG1-F396 (antibody)
heavy: B19 heavy with E258T, T309Q, P310V, Q313A, M430I
light: not shown
notes: EU numbering; copies: 2 + 2
B53: IgG1-F374 (antibody)
heavy: B19 heavy with Y254W, F272D, E288N, M430Y
light: not shown
notes: EU numbering; copies: 2 + 2
B54: IgG1-F394 (antibody)
heavy: B1 heavy with S241K, M254Y, V259P, G327N, L430I
light: not shown
notes: EU numbering; copies: 2 + 2
B55: IgG1-F379 (antibody)
heavy: B19 heavy with Y254W, F272D, E288N, Q313A, M430Y
light: not shown
notes: EU numbering; copies: 2 + 2
B56: IgG1-F373 (antibody)
heavy: B19 heavy with Y254W, E258T, F272D, E288N, Q313A, M430Y
light: not shown
notes: EU numbering; copies: 2 + 2
B57: IgG1-F401 (antibody)
heavy: B19 heavy with E258T, P389E, M430I
light: not shown
notes: EU numbering; 'N431Y' as printed, probably N434Y; copies: 2 + 2
B58: IgG1-F420 (antibody)
heavy: B1 heavy with M254Y, V259P, Q309A, A313H, G327N, P389E, L430M
light: not shown
notes: EU numbering; copies: 2 + 2
B59: IgG1-F426 (antibody)
heavy: B1 heavy with A313Q, G327N, L430M
light: not shown
notes: EU numbering; copies: 2 + 2
B60: IgG1-F405 (antibody)
heavy: B1 heavy with L311P, A313Q, G327N
light: not shown
notes: EU numbering; copies: 2 + 2

Molecular target: T1, human FcRn (soluble human FcRn complexed with β2-microglobulin) (human, UniProt P61769 21-119, limits assumed)
T1 construct: also called hFcRn
Assay: SPR, pH 7.0;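 further: antibodies captured on a Protein L sensor chip with human FcRn injected as analyte, KD calculated from fitted association and dissociation rate constants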

T1 sequence (chain, as listed by the source limits assumed, chain 1 of 2): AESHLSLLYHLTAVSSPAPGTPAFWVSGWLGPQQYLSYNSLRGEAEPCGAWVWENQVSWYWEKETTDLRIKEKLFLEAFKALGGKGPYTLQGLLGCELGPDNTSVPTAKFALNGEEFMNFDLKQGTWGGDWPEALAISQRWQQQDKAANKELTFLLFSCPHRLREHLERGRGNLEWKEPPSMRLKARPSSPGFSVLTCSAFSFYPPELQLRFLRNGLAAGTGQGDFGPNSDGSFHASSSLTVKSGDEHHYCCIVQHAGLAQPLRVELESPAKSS
T1 sequence (P61769 21-119 limits assumed, chain 2 of 2): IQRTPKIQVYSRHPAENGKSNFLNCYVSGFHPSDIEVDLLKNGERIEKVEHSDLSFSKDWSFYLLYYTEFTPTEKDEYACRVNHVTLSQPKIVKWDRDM

Point of comparison: B47, Kd 15 nM. Against it:
- B1 — 2.3-fold higher, 35 nM
- B2 — 2.4-fold higher, 36 nM
- B3 — 3.4-fold higher, 51 nM
- B4 — 5-fold higher, 75 nM
- B5 — 5.6-fold higher, 84 nM
- B6 — 5.3-fold higher, 80 nM
- B7 — 2.5-fold lower, 6.1 nM
- B8 — 6.3-fold higher, 94 nM
- B9 — within 1.5-fold, 20 nM
- B10 — 4-fold higher, 60 nM
- B11 — 17-fold higher, 250 nM
- B12 — 12-fold higher, 180 nM
- B13 — 6.3-fold higher, 94 nM
- B14 — 4.3-fold higher, 65 nM
- B15 — 3.8-fold higher, 57 nM
- B16 — 1.7-fold higher, 25 nM
- B17 — 7.3-fold higher, 110 nM
- B18 — 3-fold higher, 45 nM
- B19 — 1.6-fold lower, 9.6 nM
- B20 — 7.3-fold higher, 110 nM
- B21 — 3.7-fold higher, 56 nM
- B22 — 61-fold higher, 920 nM
- B23 — 1.5-fold higher, 23 nM
- B24 — 2.3-fold lower, 6.5 nM
- B25 — 8-fold higher, 120 nM
- B26 — 4.7-fold higher, 70 nM
- B27 — 5.4-fold higher, 81 nM
- B28 — 10-fold higher, 150 nM
- B29 — 8.7-fold higher, 130 nM
- B30 — 6.3-fold higher, 94 nM
- B31 — 1.6-fold higher, 24 nM
- B32 — within 1.5-fold, 17 nM
- B33 — 3.4-fold higher, 51 nM
- B34 — 2.5-fold higher, 37 nM
- B35 — 2.7-fold lower, 5.6 nM
- B36 — 15-fold higher, 220 nM
- B37 — 5.3-fold higher, 80 nM
- B38 — 2.4-fold higher, 36 nM
- B39 — 2.7-fold lower, 5.5 nM
- B40 — 2.1-fold higher, 32 nM
- B41 — 17-fold higher, 250 nM
- B42 — 41-fold higher, 620 nM
- B43 — 10-fold higher, 150 nM
- B44 — within 1.5-fold, 13 nM
- B45 — 13-fold higher, 200 nM
- B46 — 4.5-fold higher, 68 nM
- B48 — 11-fold higher, 160 nM
- B49 — 2.2-fold lower, 6.9 nM
- B50 — 8.7-fold higher, 130 nM
- B51 — 5.9-fold higher, 88 nM
- B52 — within 1.5-fold, 20 nM
- B53 — within 1.5-fold, 12 nM
- B54 — 3.5-fold higher, 53 nM
- B55 — 1.7-fold lower, 9 nM
- B56 — within 1.5-fold, 11 nM
- B57 — 2.2-fold lower, 6.9 nM
- B58 — 10-fold higher, 150 nM
- B59 — 5.6-fold higher, 84 nM
- B60 — 11-fold higher, 170 nM
